This is an account of results in paper PMC4452267.

Data set [1] concerns the target Rubrivivax gelatinosus PpsR (Rubrivivax gelatinosus). Nature of the data set: SEC; Superose 12 in 20 mM Tris-HCl (pH 8.0), 500 mM NaCl, 6% glycerol, 0.5 ml/min; molecular weight estimated from a standard curve (Gel Filtration Standard, BioRad).
Data set [2] deals with PpsR (Rubrivivax gelatinosus). Nature of the data set: EMSA. Conditions: EC50, EMSA: 5 nM probe, 25 mM Tris-HCl pH 8.0, 100 mM NaCl, 2 mM MgCl2, 6% glycerol, 50 ug/ml heparin, room temperature 30 min (5 mM DTT if reduced), footprint: …. On the technique in general: Mobility shift assays separate free from complexed probe on a gel.
Data set [3] has as its system PpsR C436A (Rubrivivax gelatinosus). Nature of the data set: EMSA. Conditions: EC50, EMSA: 5 nM probe, 25 mM Tris-HCl pH 8.0, 100 mM NaCl, 2 mM MgCl2, 6% glycerol, 50 ug/ml heparin, room temperature 30 min (5 mM DTT if reduced), footprint: ….
Data set [4] deals with T1, PpsR (Rubrivivax gelatinosus) (UniProt I0HUJ5).
T1 sequence: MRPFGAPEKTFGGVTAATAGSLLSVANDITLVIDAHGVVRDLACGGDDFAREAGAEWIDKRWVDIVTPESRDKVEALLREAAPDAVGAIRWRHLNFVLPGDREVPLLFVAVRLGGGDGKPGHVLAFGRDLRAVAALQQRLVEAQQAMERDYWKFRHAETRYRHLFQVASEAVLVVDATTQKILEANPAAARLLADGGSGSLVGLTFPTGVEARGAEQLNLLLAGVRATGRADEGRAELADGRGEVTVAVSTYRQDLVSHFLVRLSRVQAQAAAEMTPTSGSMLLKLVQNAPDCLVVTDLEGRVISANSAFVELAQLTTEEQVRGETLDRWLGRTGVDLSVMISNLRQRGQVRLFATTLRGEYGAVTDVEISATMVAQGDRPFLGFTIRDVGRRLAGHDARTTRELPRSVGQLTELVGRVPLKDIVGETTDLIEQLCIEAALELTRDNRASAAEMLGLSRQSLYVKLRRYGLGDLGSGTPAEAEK
Description: DNase I footprinting. Conditions: EMSA: 5 nM probe, 25 mM Tris-HCl pH 8.0, 100 mM NaCl, 2 mM MgCl2, 6% glycerol, 50 ug/ml heparin, room temperature 30 min (5 mM DTT if reduced); footprint: ….

A word on the stoichiometry N: it is the number of molecules, sites or subunits per partner or assembly.

As for “Rubrivivax gelatinosus PpsR (natural protein)”, in data set [1], the stoichiometry N is 4.

Take pucB promoter EMSA probe: the K half in data set [2] (oxidized (untreated)) was 49.8 nM; in data set [2] (reduced, 5 mM DTT), 63.3 nM; in data set [3] (oxidized (untreated)), 94.1 nM; in data set [3] (reduced, 5 mM DTT) it was 93.3 nM.

As for crtI promoter EMSA probe, the K half amounted to 80.5 nM in data set [2] (oxidized (untreated)); 86.5 nM in data set [2] (reduced, 5 mM DTT); 146 nM in data set [3] (oxidized (untreated)); 147 nM in data set [3] (reduced, 5 mM DTT).

Take “ACCAGTTTCCGTGCTCGACCCGCACGTGGGTTGGCTTCTGTAGCCCTCGGATTTCTCCCTACCGACATGTGTAACGCTACGCTGACAGGGTGGGGGCGTCAACATGTCGTGACACCCCCGCAACGCTGAATGTGTCGCGGCTCTGATCTATGACAAATTGCCGGGGTCCGGCGGGCCTCGGGAGCTCT (double strand) [pucB promoter footprint probe]”: the binding entry in data set [4] is “binds”.

For the substance “ATCCTGCTTTCCGGCCGCGCGCGGGGCTGCGGCATCCGACTTCATCAGCATCCGTCGAGCTTGTCCTAAGGCAGGGATTGTGTCAACGACAATTGACGCTCTGTTTTGTCAAGCGCAAGATTCAGCCCCATGGCAAGGCCCGCGTTGTCCGCTGTAGCGGAGTTGCTCAAACCGATCACCTGGTTCCCTCCGAT (double strand) [crtI promoter footprint probe]”, in data set [4], the binding result is recorded as “binds”.
